The assay concerns the target T1, SARS-CoV-2 spike receptor-binding domain (RBD), original Wuhan isolate (SARS-CoV-2, Wuhan isolate, UniProt P0DTC2).
T1 construct: not shown: His tag, C-terminal, kept
In words: BLI. The conditions noted are these: both partners purified.

The koff is a measure of how fast the partners let go of each other. What is called kon is the rate constant with which the complex forms. High values mean fast association, low ones slow association.

B1: G32Q4 Fab (Fab, V domains shown)
VH: QVQLVESGGGVVQPGRSLRLSCAASGFTFSRYAMQWVRQAPGKGLEWVAVISYDGNNRYYADSVKGRFTISRDNSKNTLYLQMNSLRAEDTAVYYCARGPPGYYDSSGYYQTPEYFQHWGQGTLVTVSS
VL: QSVLTQPPSVSGAPGQRVTISCTGSSSNIGVGYDVHWYQQFPGTVPKLLIYGNSNRPSGVPDRFSGSKSGTSASLAITGLQAEDEADYYCQSYDSSLSGVVFGGGTKLTVL
B1: the koff was 0.0066 s⁻¹ and the kon turned out to be 1.2e+06 M⁻¹ s⁻¹.
